The source of these data is patent US20220073621A1.

Assay [1] has as its target Mouse PD-L1 on CHO cells (mouse) (UniProt Q9EP73). Briefly: flow cytometry, CHO-mPD-L1 cells, Anti-mouse-IgGFc-FITC.
Assay [2] has as its target Rhesus monkey PD-L1 on CHO cells (rhesus monkey). Kind of assay: flow cytometry, CHO-rmPD-L1 cells, Anti-mouse-IgGFc-FITC. On the technique in general: Flow cytometry measures light scatter and fluorescence of single cells or particles in a stream.
Assay [3] addresses human-mouse chimeric PD-L1 on CHO cells (human-mouse chimeric). Briefly: flow cytometry, CHO-cPD-L1 cells, Anti-human IgG Fc-FITC.
Assay [4] deals with Mouse PD-L1 on CHO cells (mouse) (UniProt Q9EP73). Briefly: flow cytometry, CHO-mPD-L1 cells, Anti-human IgG Fc-FITC.
Assay [5] has as its target Rhesus monkey PD-L1 on CHO cells (rhesus monkey). Kind of assay: flow cytometry, CHO-rPD-L1 cells, Anti-human IgG Fc-FITC.

Chain of Mouse PD-L1 on CHO cells (mouse) (Q9EP73 19-290 limits assumed): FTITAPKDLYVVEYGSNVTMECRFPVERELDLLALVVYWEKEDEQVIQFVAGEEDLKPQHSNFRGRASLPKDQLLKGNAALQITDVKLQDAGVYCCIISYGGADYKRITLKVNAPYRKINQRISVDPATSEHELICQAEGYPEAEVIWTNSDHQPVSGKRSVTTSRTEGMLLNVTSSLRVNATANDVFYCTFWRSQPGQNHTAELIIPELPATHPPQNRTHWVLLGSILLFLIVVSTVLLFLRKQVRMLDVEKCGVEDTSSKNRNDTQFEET
Chain of Rhesus monkey PD-L1 on CHO cells (rhesus monkey) (Q9NZQ7 other isoform, or with tags, fused parts or gaps limits assumed): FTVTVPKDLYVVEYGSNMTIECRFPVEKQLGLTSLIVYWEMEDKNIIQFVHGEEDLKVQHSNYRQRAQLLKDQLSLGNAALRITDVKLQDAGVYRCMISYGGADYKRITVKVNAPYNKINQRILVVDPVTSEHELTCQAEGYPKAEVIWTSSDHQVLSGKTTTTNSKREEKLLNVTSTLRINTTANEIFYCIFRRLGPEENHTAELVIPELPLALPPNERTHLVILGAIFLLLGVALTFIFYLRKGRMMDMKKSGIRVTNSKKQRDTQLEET
Chain of human-mouse chimeric PD-L1 on CHO cells (human-mouse chimeric) (Q9EP73 other isoform, or with tags, fused parts or gaps mutant limits assumed): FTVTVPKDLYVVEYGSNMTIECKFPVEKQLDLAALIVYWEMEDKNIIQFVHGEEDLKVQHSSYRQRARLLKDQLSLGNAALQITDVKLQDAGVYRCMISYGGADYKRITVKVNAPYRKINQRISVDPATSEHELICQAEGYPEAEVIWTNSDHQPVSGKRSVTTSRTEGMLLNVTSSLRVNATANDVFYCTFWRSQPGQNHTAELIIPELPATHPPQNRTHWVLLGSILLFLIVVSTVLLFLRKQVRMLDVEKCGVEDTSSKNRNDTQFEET

As to NC, the % cells in the FITC-positive gate in assay [1] is 5.52%; in assay [2] it was 1.13%; in assay [3], 0.779%; in assay [4], 0.681%; in assay [5], 2.74%.
